Test results from article PMC4403447.

Legend:
[1] = target: Sti1 G193C–G309C N39A, labelled with ATTO 532 and ATTO 647 (S. cerevisiae) (UniProt P15705)
[2] = target: Sti1 G193C–G309C N435A, labelled with ATTO 532 and ATTO 647 (S. cerevisiae) (UniProt P15705)
[3] = target: Sti1 G193C–G309C, labelled with ATTO 532 and ATTO 647 (S. cerevisiae) (UniProt P15705)
Chain of Sti1 G193C–G309C, labelled with ATTO 532 and ATTO 647 (S. cerevisiae) (P15705 whole entry G193C/G309C): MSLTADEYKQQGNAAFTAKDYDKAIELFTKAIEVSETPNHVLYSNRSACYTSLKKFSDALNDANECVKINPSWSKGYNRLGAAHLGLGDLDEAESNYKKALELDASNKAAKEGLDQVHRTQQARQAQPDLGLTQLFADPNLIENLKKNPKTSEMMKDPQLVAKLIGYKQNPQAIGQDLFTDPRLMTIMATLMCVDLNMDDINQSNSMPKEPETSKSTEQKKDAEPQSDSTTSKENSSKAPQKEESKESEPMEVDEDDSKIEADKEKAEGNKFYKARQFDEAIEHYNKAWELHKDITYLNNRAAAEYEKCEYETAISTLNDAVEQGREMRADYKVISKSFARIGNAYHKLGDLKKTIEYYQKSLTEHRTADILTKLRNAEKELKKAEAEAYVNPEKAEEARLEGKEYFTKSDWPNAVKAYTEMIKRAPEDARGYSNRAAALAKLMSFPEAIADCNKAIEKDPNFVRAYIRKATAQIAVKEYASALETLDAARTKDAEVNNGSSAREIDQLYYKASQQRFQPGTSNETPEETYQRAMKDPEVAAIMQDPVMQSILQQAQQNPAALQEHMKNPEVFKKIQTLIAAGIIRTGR

Chain of yHsp70 (Ssa1), P10591 1-642 (natural protein; ATTO 532 and ATTO 647 on the two cysteines (labelled stochastically)) (P10591 whole entry): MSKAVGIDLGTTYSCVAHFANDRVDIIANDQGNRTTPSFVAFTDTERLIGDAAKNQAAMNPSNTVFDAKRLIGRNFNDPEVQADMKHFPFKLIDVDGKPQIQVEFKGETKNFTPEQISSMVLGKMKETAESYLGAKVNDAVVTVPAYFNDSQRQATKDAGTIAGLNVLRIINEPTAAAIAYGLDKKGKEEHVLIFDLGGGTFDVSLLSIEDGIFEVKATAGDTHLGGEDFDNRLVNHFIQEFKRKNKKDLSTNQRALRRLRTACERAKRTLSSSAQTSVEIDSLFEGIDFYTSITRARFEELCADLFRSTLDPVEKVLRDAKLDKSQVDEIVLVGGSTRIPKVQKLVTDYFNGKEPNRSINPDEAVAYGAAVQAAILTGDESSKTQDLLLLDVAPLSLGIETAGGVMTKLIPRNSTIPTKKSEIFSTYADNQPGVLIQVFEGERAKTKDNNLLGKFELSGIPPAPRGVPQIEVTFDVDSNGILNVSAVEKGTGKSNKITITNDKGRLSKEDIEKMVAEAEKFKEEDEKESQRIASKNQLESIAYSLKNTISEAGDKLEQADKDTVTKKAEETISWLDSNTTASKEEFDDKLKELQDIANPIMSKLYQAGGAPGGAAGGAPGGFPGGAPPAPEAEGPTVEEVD
Chain of Sti1 G193C–G309C N39A, labelled with ATTO 532 and ATTO 647 (S. cerevisiae) (P15705 whole entry N39A/G193C/G309C): as the sequence (P15705 whole entry G193C/G309C) above, with N39A counted along it
Chain of Sti1 G193C–G309C N435A, labelled with ATTO 532 and ATTO 647 (S. cerevisiae) (P15705 whole entry G193C/G309C/N435A): as the sequence (P15705 whole entry G193C/G309C) above, with N435A counted along it

**Q.** Which results are given for “yHsp70 (Ssa1), P10591 1-642 (natural protein; ATTO 532 and ATTO 647 on the two cysteines (labelled stochastically))”?
**A.** dynamic traces (%) in surface-based spFRET (TIRF) of Sti1 encapsulated in vesicles with 25 μM Hsp70; 13 without Hsp [1]: 27%; dynamic traces (%) in surface-based spFRET (TIRF) of Sti1 encapsulated in vesicles with 25 μM Hsp70; 17 without Hsp [2]: 15%; dynamic traces (%) in surface-based spFRET (TIRF) of Sti1 encapsulated in vesicles with 25 μM Hsp70; 17 without Hsp [3]: 28%

**Q.** For “yHsp90 (Hsp82), P02829 1-709 (natural protein; ATTO 532 and ATTO 647 on the two cysteines (labelled stochastically))”, which dynamic traces (%) in surface-based spFRET (TIRF) of Sti1 encapsulated in vesicles with 10 μM Hsp90; 13 without Hsp [1] is on record?
**A.** Its dynamic traces (%) in surface-based spFRET (TIRF) of Sti1 encapsulated in vesicles with 10 μM Hsp90; 13 without Hsp is 27%.

**Q.** And the dynamic traces (%) in surface-based spFRET (TIRF) of Sti1 encapsulated in vesicles with 10 μM Hsp90; 17 without Hsp [2]?
**A.** The dynamic traces (%) in surface-based spFRET (TIRF) of Sti1 encapsulated in vesicles with 10 μM Hsp90; 17 without Hsp was 26%.

**Q.** What about the dynamic traces (%) in surface-based spFRET (TIRF) of Sti1 encapsulated in vesicles with 10 μM Hsp90; 17 without Hsp [3] of the same substance?
**A.** Its dynamic traces (%) in surface-based spFRET (TIRF) of Sti1 encapsulated in vesicles with 10 μM Hsp90; 17 without Hsp is 31%.
